Assay [1] concerns the target CD16 (FcγRIIIA) receptor expressed on Jurkat-CD16 cells (human, UniProt P08637 17-208). Briefly: cell-based or functional assay.
In assay [2] the target is T1, CD20 antigen expressed on Raji cells (UniProt P11836 1-297, limits assumed).
T1 construct: whole, on cells; Raji is a human B cell line
T1 sequence (looked up): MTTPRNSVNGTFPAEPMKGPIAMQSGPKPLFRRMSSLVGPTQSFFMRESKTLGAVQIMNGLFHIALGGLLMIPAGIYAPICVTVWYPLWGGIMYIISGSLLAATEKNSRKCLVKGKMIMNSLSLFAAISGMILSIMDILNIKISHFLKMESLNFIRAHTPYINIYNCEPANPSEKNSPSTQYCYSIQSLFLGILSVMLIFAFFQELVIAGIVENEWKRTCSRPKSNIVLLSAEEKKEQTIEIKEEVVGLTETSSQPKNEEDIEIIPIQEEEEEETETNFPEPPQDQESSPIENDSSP
The assay can be described thus: flow cytometry competition on Raji cells; competitor CAT-13.6E12 detected with PE anti-mouse IgG.

For assay [3], the target named is T1, CD20 antigen expressed on Raji cells. Briefly: specificity study, as for EMAB6 (competition with CAT-13.6E12 on Raji cells); no details given.

This note sets out measurements from patent US20090053233A1 (LABORATOIRE FRANCAIS DU FRACTIONNEMENT ET DES …, published 2009).

Sequence of CD16 (FcγRIIIA) receptor expressed on Jurkat-CD16 cells (P08637 17-208): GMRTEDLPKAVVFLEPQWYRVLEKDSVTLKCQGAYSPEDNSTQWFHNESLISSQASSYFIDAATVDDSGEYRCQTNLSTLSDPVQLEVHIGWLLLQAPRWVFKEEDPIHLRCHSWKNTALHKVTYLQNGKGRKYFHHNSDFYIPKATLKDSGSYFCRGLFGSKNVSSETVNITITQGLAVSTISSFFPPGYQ

B1: anti-CD20 chimeric antibody EMAB6 produced by clone R509 (YB2/0 cell line) (antibody, human IgG1, kappa)
heavy: not shown
light: QIVLSQSPAILSASPGEKVTMTCRASSSVSYMHWYQQKPGSSPKPWIYATSNLASGVPARFSGSGSGTSYSFTISRVEAEDAATYYCQQWTFNPPTFGGGTRLEINRTVAAPSVFIFPPSDEQLKSGTASVVCLLNNFYPREAKVQWKVDNALQSGNSQESVTEQDSKDSTYSLSSTLTLSKADYEKHKVYACEVTHQGLSSPVTKSFNRGEC
notes: Murine-human chimeric IgG1 kappa (murine CAT-13.6E12 variable regions, human gamma1 and kappa constant regions), produced in rat YB2/0 cells, low fucose; The cloned V fragments carry the natural signal peptide; also called chimeric EMAB6 antibody; AMAB6
As for B1, the “Rituxan® EC50/EMAB6 EC50 ratio, IL-2 secretion by Jurkat-CD16 cells in the presence of Raji cells” value in assay [1] is around 15 ratio. Moreover, the binding result in assay [2] is “binds”.

B2: anti-CD20 chimeric antibody EMAB603 produced by clone R603 (YB2/0 cell line) (antibody, human IgG1, kappa)
heavy: not shown
light: QIVLSQSPAILSASPGEKVTMTCRASSSVSYMHWYQQKPGSSPKPWIYATSNLASGVPARFSGSGSGTSYSFTISRVEAEDAATYYCQQWTFNPPTFGGGTRLEIKRTVAAPSVFIFPPSDEQLKSGTASVVCLLNNFYPREAKVQWKVDNALQSGNSQESVTEQDSKDSTYSLSSTLTLSKADYEKHKVYACEVTHQGLSSPVTKSFNRGEC
notes: Murine-human chimeric IgG1 kappa; Produced in rat YB2/0 cells; also called chimeric EMAB603 antibody; EMBA603
Consider B2, for which the binding result in assay [3] is “binds”.
